Data published in US20160194641, “G-RICH isoDNA SEQUENCES FORMING G-QUADRUPLEX STRUCTURE, THEIR FUNCTION AS [sequence] AND A PROCESS FOR THE PREPARATION THEREOF” (COUNCIL OF SCIENTIFIC & INDUSTRIAL RESEARCH, published 2016).

Target: thrombin (Bos taurus, UniProt P00735;P00735 P00735:318-366,P00735:367-625)
Assay: CD titration at 295 nm, low temperature, without K+; signal increases with thrombin; Tm with thrombin 22 C (53 C with K+)
Settings: tags: copies: 1; antiparallel unimolecular G4
Description: CD spectra were recorded on Jasco J-815 CD Spectrometer equipped with a Jasco PTC-424S/15 peltier system. 2 mm path-length quartz cuvettes were used for a sample volume 500 μl and strand concentration of 5 μM in 10 mM Na/K-phosphate buffer (pH 7.5) containing 100 mM NaCl/KCl respectively. Oligomers prepared in buffer were annealed by heating at 95° C. for 5 minutes, then slowly cooled to room temperature, followed by refrigeration for 5-6 hours before use. Spectral scans were collected over a wavelength range 200-320 nm at a scanning rate of 100 nm min⁻¹. The spectra were collected as an average of three scans for each sample.
Biochem. Biophys. Res. Commun. 352, 812-817 (2007). […] An increase in the CD signal amplitude upon incremental addition of thrombin is observed even at relatively low concentrations of thrombin. In case of isod-TBA-2 and isod-TBA-3, CD band at 295 nm and G-quadruplex structure was not evident in the absence of either thrombin or K⁺, which is also supported by ¹H NMR. Upon incremental addition of thrombin, the CD maximum at 295 nm emerges for isod-TBA-2 and isod-TBA-3. […] Further, the temperature-dependent stability of the quadruplex structure was followed by recording the CD amplitude at 295 nm with increasing temperature. The strength of d-TBA-1 G-quadruplex was the highest with Tₘ=22° C., followed by iso-d-TBA-3 (Tₘ 13° C.) and iso-d-TBA-2 (Tₘ<10° C.). […]

Binder: GGTTGGTGTGGTTGG (structured_DNA) [d-TBA-1]
- binding result: binds
